B1: 2K2A (parent)
chain: ELREAFRLYDKEGNGYISTDVMREILAELDETLSSEDLDAMIDEIDADGSGTVDFEEFMGVMT

Variants of: B1
Experiment: folding stability dG (cDNA display proteolysis); higher = more stable
Details: PBS, room temperature

In order of rising “folding stability dG” value:
1. ELREAFRLYRKEGNGYISTDVMREILAELDETLSSEDLDAMIDEIDADGSGTVDFEEFMGVMT [D10R]  -0.527 kcal/mol
2. ELREAFRLYDKEGNGYISTDVMTEILAELDETLSSEDLDAMIDEIDADGSGTVDFEEFMGVMT [R23T]  -0.478 kcal/mol
3. ELREAFRLYDKEGNGYISTDVMREILAELDETLSSEDLDAMIDEIDADGSGTVDFEEFMGVNT [M62N]  0.258 kcal/mol
4. ELREAFRLYDKEGNGYISTDVMREIYAELDETLSSEDLDAMIDEIDADGSGTVDFEEFMGVMT [L26Y]  0.295 kcal/mol
5. ELREAFRLYDKEGNGYISTDVMREIVAELDETLSSEDLDAMIDEIDADGSGTVDFEEFMGVMT [L26V]  0.555 kcal/mol
6. ELREAFRLYDKEGNGYISTDVMREILAELDETLSSEDWDAMIDEIDADGSGTVDFEEFMGVMT [L38W]  0.599 kcal/mol
7. ELREAFRLYDKEGNGYISTDVMREILAELDETLSSEDLDAHIDEIDADGSGTVDFEEFMGVMT [M41H]  0.645 kcal/mol
8. EQREAFRLYDKEGNGYISTDVMREILAELDETLSSEDLDAMIDEIDADGSGTVDFEEFMGVMT [L2Q]  0.705 kcal/mol
9. EDREAFRLYDKEGNGYISTDVMREILAELDETLSSEDLDAMIDEIDADGSGTVDFEEFMGVMT [L2D]  0.869 kcal/mol
10. ELREAFRLYAKEGNGYISTDVMREILAELDETLSSEDLDAMIDEIDADGSGTVDFEEFMGVMT [D10A]  0.874 kcal/mol
11. ELREAFRLYDKEGNGYISTDVMREILAELDEILSSEDLDAMIDEIDADGSGTVDFEEFMGVMT [T32I]  0.878 kcal/mol
12. ELREAFRLYDKEGNGYISTDVMREILAELDETLSSEDLDAMIDEIDADGFGTVDFEEFMGVMT [S50F]  0.991 kcal/mol
13. ELREAFRLYDKEGNGYISTDVMREILAELDETLSSEDLVAMIDEIDADGSGTVDFEEFMGVMT [D39V]  0.996 kcal/mol
14. ELREAFRLYDKELNGYISTDVMREILAELDETLSSEDLDAMIDEIDADGSGTVDFEEFMGVMT [G13L]  1.11 kcal/mol
15. ELREAFRLYDKKGNGYISTDVMREILAELDETLSSEDLDAMIDEIDADGSGTVDFEEFMGVMT [E12K]  1.13 kcal/mol
16. EHREAFRLYDKEGNGYISTDVMREILAELDETLSSEDLDAMIDEIDADGSGTVDFEEFMGVMT [L2H]  1.16 kcal/mol
17. ELREAFRLYDKESNGYISTDVMREILAELDETLSSEDLDAMIDEIDADGSGTVDFEEFMGVMT [G13S]  1.18 kcal/mol
18. ELREAFRLYDKEMNGYISTDVMREILAELDETLSSEDLDAMIDEIDADGSGTVDFEEFMGVMT [G13M]  1.23 kcal/mol
19. ELREAFRLYDKEGNGYISTDVMREILAELDETLSSEDLDAMIDEIDALGSGTVDFEEFMGVMT [D48L]  1.38 kcal/mol
20. ELREAFRLYDKEGNGYISTDVVREILAELDETLSSEDLDAMIDEIDADGSGTVDFEEFMGVMT [M22V]  1.4 kcal/mol
21. ELREAFRLYDKEGNGYISTDVMREILAELDEELSSEDLDAMIDEIDADGSGTVDFEEFMGVMT [T32E]  1.48 kcal/mol
22. ELREAFRLYDKEGNGYISTDVMREILAELDETLSSEDLDAMIDEIDAEGSGTVDFEEFMGVMT [D48E]  1.48 kcal/mol
23. ELREAFRLYDKEGNGYISTDVMREILAELDETLSSEDLDAMIDEIDADGSGTVDFEEFMGVLT [M62L]  1.5 kcal/mol
24. ELREAFRLYDKLGNGYISTDVMREILAELDETLSSEDLDAMIDEIDADGSGTVDFEEFMGVMT [E12L]  1.55 kcal/mol
25. ELREAFRLYDKEGNGYISTDVMREILVELDETLSSEDLDAMIDEIDADGSGTVDFEEFMGVMT [A27V]  1.59 kcal/mol
26. ELREAFRLYDKEGNGYISTDVMREILAELDETLSSEDLDAMIDEIDADGSGTVDFMEFMGVMT [E56M]  1.64 kcal/mol
27. ELREAFRLYDKEGNGYISTDVMREILAELDETLSSEDLDAMMDEIDADGSGTVDFEEFMGVMT [I42M]  1.72 kcal/mol
28. ELREAFRLYDKEGNGYISTDVMREILAELDETLSSEDLDAMIDEIDADGSGTVDFAEFMGVMT [E56A]  1.78 kcal/mol
29. ELREAFRLYDKEGNGYISTDVMREILAELDETLSSEDLDAMIDEIDADGKGTVDFEEFMGVMT [S50K]  1.78 kcal/mol
30. ELREAFRLYDKEGNGYISTDVMREILAELDETLSSEDLDAMIDEIDADGTGTVDFEEFMGVMT [S50T]  1.88 kcal/mol
31. ELREAFRLYDKEGNGYISTDVMREILAELDETLSSEDLDAMIDEIDADGSGTVDFQEFMGVMT [E56Q]  1.9 kcal/mol
32. ELREAFRSYDKEGNGYISTDVMREILAELDETLSSEDLDAMIDEIDADGSGTVDFEEFMGVMT [L8S]  1.92 kcal/mol
33. ELREAFRLYDKEGNGYISTDVLREILAELDETLSSEDLDAMIDEIDADGSGTVDFEEFMGVMT [M22L]  1.97 kcal/mol
34. ELREAFRLYDKEGNGYISTDVMREILMELDETLSSEDLDAMIDEIDADGSGTVDFEEFMGVMT [A27M]  2.03 kcal/mol
35. ELREAFRLYDKEGNGYISTDVMREILAELDETLSKEDLDAMIDEIDADGSGTVDFEEFMGVMT [S35K]  2.14 kcal/mol
36. ELREAFRLYDKEGNGYISTDVMREILAECDETLSSEDLDAMIDEIDADGSGTVDFEEFMGVMT [L29C]  2.18 kcal/mol
37. ELREAFRLYDKEGNGYISTDVMRNILAELDETLSSEDLDAMIDEIDADGSGTVDFEEFMGVMT [E24N]  2.19 kcal/mol
38. ELREAFRLYDKEGNGYISTDVMREILAELDETLSSEDLDAMIDEIDADGSGTVDFEEFMCVMT [G60C]  2.25 kcal/mol
39. ELREAFRLYDKEGNGYISTDVMRWILAELDETLSSEDLDAMIDEIDADGSGTVDFEEFMGVMT [E24W]  2.31 kcal/mol
40. ELREAFRLYDKEGNGYISTDVMREILACLDETLSSEDLDAMIDEIDADGSGTVDFEEFMGVMT [E28C]  2.33 kcal/mol
41. ELREAFRLYDKEGNGYISTDVMREILAELDETLSSEDLDAWIDEIDADGSGTVDFEEFMGVMT [M41W]  2.43 kcal/mol
42. ELREAFRLYDKEGNGYISTDVMREILAALDETLSSEDLDAMIDEIDADGSGTVDFEEFMGVMT [E28A]  2.46 kcal/mol

Source: the MegaScale stability set (Tsuboyama et al. 2023)
